Assays:
[1] = biological target: recombinant human VEGF165 (human, UniProt P15692 207-395); test: cell-based or functional assay
[2] = biological target: recombinant human PDGF-BB (human, UniProt P01127 82-190); test: cell-based or functional assay
Chain of recombinant human PDGF-BB (P01127 82-190 limits assumed): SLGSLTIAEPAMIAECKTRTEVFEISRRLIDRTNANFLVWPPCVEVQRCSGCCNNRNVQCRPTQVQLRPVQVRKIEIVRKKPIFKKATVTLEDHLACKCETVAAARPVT

Chain of recombinant human VEGF165 (P15692 other isoform, or with tags, fused parts or gaps limits assumed): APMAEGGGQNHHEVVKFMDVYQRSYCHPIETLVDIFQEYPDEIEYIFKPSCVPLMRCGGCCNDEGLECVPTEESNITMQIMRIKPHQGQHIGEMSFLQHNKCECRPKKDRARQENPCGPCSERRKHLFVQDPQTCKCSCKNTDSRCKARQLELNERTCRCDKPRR

| Binder | Potency IC50 (nM) HMVEC-d hVEGF165 [1] | Potency IC50 (nM) NIH-3T3 hPDGF-BB [2] |
| --- | --- | --- |
| 9E8.4_GS_1B10.1 (bispecific antibody, human IgG1, kappa, L234A L235A) heavy: EVTLRESGPALVKPTQTLTLTCTFSGFSLSTYGMGVGWIRQPPGKALEWLANIWWDDDKYYNPSLKNRLTISKDTSKNQVVLTMTNMDPVDTATYYCARIESIGTTYSFDYWGQGTMVTVSSGGGGSGGGGSEVQLVESGGGLVQPGGSLRLSCAASGFSFSKYDMAWFRQAPGKGLEWVASITTSGVGTYYRDSVKGRFTVSRDNAKSTLYLQMNSLRAEDTAVYYCARGYGAMDAWGQGTTVTVSSASTKGPSVFPLAPSSKSTSGGTAALGCLVKDYFPEPVTVSWNSGALTSGVHTFPAVLQSSGLYSLSSVVTVPSSSLGTQTYICNVNHKPSNTKVDKKVEPKSCDKTHTCPPCPAPEAAGGPSVFLFPPKPKDTLMISRTPEVTCVVVDVSHEDPEVKFNWYVDGVEVHNAKTKPREEQYNSTYRVVSVLTVLHQDWLNGKEYKCKVSNKALPAPIEKTISKAKGQPREPQVYTLPPSREEMTKNQVSLTCLVKGFYPSDIAVEWESNGQPENNYKTTPPVLDSDGSFFLYSKLTVDKSRWQQGNVFSCSVMHEALHNAYTQKSLSLSPGK light: EFVLTQSPGTLSLSPGERATLSCERSSGDIGDSYVSWYQQKPGQAPRLVIYADDQRPSGIPDRFSGSGSGTDFTLTISRLEPEDFAVYYCQSYDINIDIVFGGGTKVEIKGGSGGGGSGGDIQMTQSPSSLSASVGDRVTITCKASQDIDDYLSWYQQKPGKSPKLVIYAATRLADGVPSRFSGSGSGTDYTLTISSLQPEDFATYYCLQSSSTPWTFGGGTKVEIKRTVAAPSVFIFPPSDEQLKSGTASVVCLLNNFYPREAKVQWKVDNALQSGNSQESVTEQDSKDSTYSLSSTLTLSKADYEKHKVYACEVTHQGLSSPVTKSFNRGEC | 0.391 nM | 0.109 nM |
| 9E8.4_GS_9E10.1 (bispecific antibody, human IgG1, kappa, L234A L235A) heavy: EVTLRESGPALVKPTQTLTLTCTFSGFSLSTYGMGVGWIRQPPGKALEWLANIWWDDDKYYNPSLKNRLTISKDTSKNQVVLTMTNMDPVDTATYYCARIESIGTTYSFDYWGQGTMVTVSSGGGGSGGGGSEIQLVQSGSELKKPGASVKVSCKASGYTFTNYGMYWVKQAPGQGLEYMGWIDTETGRPTYADDFKGRFVFSLDTSVSTAYLQISSLKAEDTAVYFCARWSGDTTGIRGPWFAYWGQGTLVTVSSASTKGPSVFPLAPSSKSTSGGTAALGCLVKDYFPEPVTVSWNSGALTSGVHTFPAVLQSSGLYSLSSVVTVPSSSLGTQTYICNVNHKPSNTKVDKKVEPKSCDKTHTCPPCPAPEAAGGPSVFLFPPKPKDTLMISRTPEVTCVVVDVSHEDPEVKFNWYVDGVEVHNAKTKPREEQYNSTYRVVSVLTVLHQDWLNGKEYKCKVSNKALPAPIEKTISKAKGQPREPQVYTLPPSREEMTKNQVSLTCLVKGFYPSDIAVEWESNGQPENNYKTTPPVLDSDGSFFLYSKLTVDKSRWQQGNVFSCSVMHEALHNAYTQKSLSLSPGK light: EFVLTQSPGTLSLSPGERATLSCERSSGDIGDSYVSWYQQKPGQAPRLVIYADDQRPSGIPDRFSGSGSGTDFTLTISRLEPEDFAVYYCQSYDINIDIVFGGGTKVEIKGGSGGGGSGGDIRMTQSPSSLSASVGDRVTIECLASEDIYSDLAWYQQKPGKSPKLLIYNANGLQNGVPSRFSGSGSGTDYSLTISSLQPEDVATYFCQQYNYFPGTFGQGTKLEIKRTVAAPSVFIFPPSDEQLKSGTASVVCLLNNFYPREAKVQWKVDNALQSGNSQESVTEQDSKDSTYSLSSTLTLSKADYEKHKVYACEVTHQGLSSPVTKSFNRGEC | 0.073 nM | 0.317 nM |
| 9E8.4_GS_9E10.6 (bispecific antibody, human IgG1, kappa, L234A L235A) heavy: EVTLRESGPALVKPTQTLTLTCTFSGFSLSTYGMGVGWIRQPPGKALEWLANIWWDDDKYYNPSLKNRLTISKDTSKNQVVLTMTNMDPVDTATYYCARIESIGTTYSFDYWGQGTMVTVSSGGGGSGGGGSEVQLVQSGAEVKKPGSSVKVSCKASGYTFTNYGMYWVRQAPGQGLEWMGWIDTETGRPTYADDFKGRFTFTADKSTSTAYMELSSLRSEDTAVYYCARWSGDTTGIRGPWFAYWGQGTLVTVSSASTKGPSVFPLAPSSKSTSGGTAALGCLVKDYFPEPVTVSWNSGALTSGVHTFPAVLQSSGLYSLSSVVTVPSSSLGTQTYICNVNHKPSNTKVDKKVEPKSCDKTHTCPPCPAPEAAGGPSVFLFPPKPKDTLMISRTPEVTCVVVDVSHEDPEVKFNWYVDGVEVHNAKTKPREEQYNSTYRVVSVLTVLHQDWLNGKEYKCKVSNKALPAPIEKTISKAKGQPREPQVYTLPPSREEMTKNQVSLTCLVKGFYPSDIAVEWESNGQPENNYKTTPPVLDSDGSFFLYSKLTVDKSRWQQGNVFSCSVMHEALHNAYTQKSLSLSPGK light: EFVLTQSPGTLSLSPGERATLSCERSSGDIGDSYVSWYQQKPGQAPRLVIYADDQRPSGIPDRFSGSGSGTDFTLTISRLEPEDFAVYYCQSYDINIDIVFGGGTKVEIKGGSGGGGSGGDIRMTQSPSSLSASVGDRVTITCLASEDIYSDLAWYQQKPGKSPKLLIYNANGLQNGVPSRFSGSGSGTDYTLTISSLQPEDVATYFCQQYNYFPGTFGQGTKLEIKRTVAAPSVFIFPPSDEQLKSGTASVVCLLNNFYPREAKVQWKVDNALQSGNSQESVTEQDSKDSTYSLSSTLTLSKADYEKHKVYACEVTHQGLSSPVTKSFNRGEC | 0.132 nM | 0.213 nM |
| CL-33675_GS_1E3.4 (bispecific antibody, human IgG1, kappa, L234A L235A) heavy: EVTLRESGPALVKPTQTLTLTCTFSGFSLSTYGMGVGWIRQPPGKALEWLANIWWDDDKYYNPSLKNRLTISKDTSKNQVVLTMTNMDPVDTATYYCARIESSGPKYSFDYWGQGTMVTVSSGGGGSGGGGSEIQLVQSGSELKKPGASVKVSCKASGYPFTNSGMYWVKQAPGQGLEYMGWINTEAGKPTYADDFKGRFVFSLDTSVSTAYLQISSLKAEDTAVYFCARWGYISDNSYGWFDYWGQGTLVTVSSASTKGPSVFPLAPSSKSTSGGTAALGCLVKDYFPEPVTVSWNSGALTSGVHTFPAVLQSSGLYSLSSVVTVPSSSLGTQTYICNVNHKPSNTKVDKKVEPKSCDKTHTCPPCPAPEAAGGPSVFLFPPKPKDTLMISRTPEVTCVVVDVSHEDPEVKFNWYVDGVEVHNAKTKPREEQYNSTYRVVSVLTVLHQDWLNGKEYKCKVSNKALPAPIEKTISKAKGQPREPQVYTLPPSREEMTKNQVSLTCLVKGFYPSDIAVEWESNGQPENNYKTTPPVLDSDGSFFLYSKLTVDKSRWQQGNVFSCSVMHEALHNAYTQKSLSLSPGK light: EIVLTQSPGTLSLSPGERATLSCRASSGSIWYSFVSWYQQKPGQAPRLLIYADDQRASGIPDRFSGSGSGTDFTLTISRLEPEDFAVYYCQSYGINIDVVFGGGTKVEIKGGSGGGGSGGATQLTQSPSSLSASVGDRVTISCRASEGVYSYMHWYQQKPGKQPKLLIYKASNLASGVPSRFSGSGSGTDFTLTISSLQPEDFATYFCHQNWNDPLTFGQGTKLEIKRTVAAPSVFIFPPSDEQLKSGTASVVCLLNNFYPREAKVQWKVDNALQSGNSQESVTEQDSKDSTYSLSSTLTLSKADYEKHKVYACEVTHQGLSSPVTKSFNRGEC | 0.372 nM | 0.039 nM |
| 9E8.4_GS_1E3.4 (bispecific antibody, human IgG1, kappa, L234A L235A) heavy: EVTLRESGPALVKPTQTLTLTCTFSGFSLSTYGMGVGWIRQPPGKALEWLANIWWDDDKYYNPSLKNRLTISKDTSKNQVVLTMTNMDPVDTATYYCARIESIGTTYSFDYWGQGTMVTVSSGGGGSGGGGSEIQLVQSGSELKKPGASVKVSCKASGYPFTNSGMYWVKQAPGQGLEYMGWINTEAGKPTYADDFKGRFVFSLDTSVSTAYLQISSLKAEDTAVYFCARWGYISDNSYGWFDYWGQGTLVTVSSASTKGPSVFPLAPSSKSTSGGTAALGCLVKDYFPEPVTVSWNSGALTSGVHTFPAVLQSSGLYSLSSVVTVPSSSLGTQTYICNVNHKPSNTKVDKKVEPKSCDKTHTCPPCPAPEAAGGPSVFLFPPKPKDTLMISRTPEVTCVVVDVSHEDPEVKFNWYVDGVEVHNAKTKPREEQYNSTYRVVSVLTVLHQDWLNGKEYKCKVSNKALPAPIEKTISKAKGQPREPQVYTLPPSREEMTKNQVSLTCLVKGFYPSDIAVEWESNGQPENNYKTTPPVLDSDGSFFLYSKLTVDKSRWQQGNVFSCSVMHEALHNAYTQKSLSLSPGK light: EFVLTQSPGTLSLSPGERATLSCERSSGDIGDSYVSWYQQKPGQAPRLVIYADDQRPSGIPDRFSGSGSGTDFTLTISRLEPEDFAVYYCQSYDINIDIVFGGGTKVEIKGGSGGGGSGGATQLTQSPSSLSASVGDRVTISCRASEGVYSYMHWYQQKPGKQPKLLIYKASNLASGVPSRFSGSGSGTDFTLTISSLQPEDFATYFCHQNWNDPLTFGQGTKLEIKRTVAAPSVFIFPPSDEQLKSGTASVVCLLNNFYPREAKVQWKVDNALQSGNSQESVTEQDSKDSTYSLSSTLTLSKADYEKHKVYACEVTHQGLSSPVTKSFNRGEC | 0.897 nM | 0.131 nM |
| 4G8.5_GS_9E8.4 (bispecific antibody, human IgG1, kappa, L234A L235A) heavy: EIQLVQSGSELKKPGASVKVSCKASGYTFTNYGMYWVRQAPGQGLEYMGWINTETGKPTYADDFKGRFVFSLDTSVSTAYLQISSLKAEDTAVYFCARTNYYYRSYIFYFDYWGQGTMVTVSSGGGGSGGGGSEVTLRESGPALVKPTQTLTLTCTFSGFSLSTYGMGVGWIRQPPGKALEWLANIWWDDDKYYNPSLKNRLTISKDTSKNQVVLTMTNMDPVDTATYYCARIESIGTTYSFDYWGQGTMVTVSSASTKGPSVFPLAPSSKSTSGGTAALGCLVKDYFPEPVTVSWNSGALTSGVHTFPAVLQSSGLYSLSSVVTVPSSSLGTQTYICNVNHKPSNTKVDKKVEPKSCDKTHTCPPCPAPEAAGGPSVFLFPPKPKDTLMISRTPEVTCVVVDVSHEDPEVKFNWYVDGVEVHNAKTKPREEQYNSTYRVVSVLTVLHQDWLNGKEYKCKVSNKALPAPIEKTISKAKGQPREPQVYTLPPSREEMTKNQVSLTCLVKGFYPSDIAVEWESNGQPENNYKTTPPVLDSDGSFFLYSKLTVDKSRWQQGNVFSCSVMHEALHNAYTQKSLSLSPGK light: ATQLTQSPSLSASVGDRVTITCRASESVSTHMHWYQQKPGKQPKLLIYGASNLESGVPSRFSGSGSGTDFTLTISSLQPEDFATYFCQQSWNDPFTFGQGTKLEIKGGSGGGGSGGEFVLTQSPGTLSLSPGERATLSCERSSGDIGDSYVSWYQQKPGQAPRLVIYADDQRPSGIPDRFSGSGSGTDFTLTISRLEPEDFAVYYCQSYDINIDIVFGGGTKVEIKRTVAAPSVFIFPPSDEQLKSGTASVVCLLNNFYPREAKVQWKVDNALQSGNSQESVTEQDSKDSTYSLSSTLTLSKADYEKHKVYACEVTHQGLSSPVTKSFNRGEC | 0.069 nM | 4.83 nM |

From US20170015742A1 (published 2017)
